Results as given in US20230310634A1, “ANTI-HUMAN VISTA ANTIBODIES AND USE THEREOF” (IMMUNEXT, INC., priority 2020, published 2023).

Tests used:
[1] = molecular target: T1, human VISTA on cells (human) (UniProt Q9H7M9); assay: flow cytometry with quantification beads, Tregs in human whole blood, n=3 donors
T1 sequence: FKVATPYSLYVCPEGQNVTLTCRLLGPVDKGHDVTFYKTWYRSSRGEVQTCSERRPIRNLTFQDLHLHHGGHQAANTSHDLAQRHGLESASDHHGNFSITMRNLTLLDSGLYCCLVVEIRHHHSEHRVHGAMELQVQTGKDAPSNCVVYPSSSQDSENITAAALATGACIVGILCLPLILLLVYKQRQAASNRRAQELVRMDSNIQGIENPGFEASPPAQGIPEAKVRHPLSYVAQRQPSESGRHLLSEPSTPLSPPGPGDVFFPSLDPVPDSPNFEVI

[2] = molecular target: T1, human VISTA on cells (human); assay: flow cytometry with quantification beads, CD14+ monocytes of human PBMC, n=5 donors
[3] = molecular target: T1, human VISTA on cells (human); assay: flow cytometry with quantification beads, CD14+ monocytes in human whole blood, n=3 donors
[4] = molecular target: T1, human VISTA on cells (human); assay: flow cytometry with quantification beads, CD20+ B cells in human whole blood, n=3 donors
[5] = molecular target: T1, human VISTA on cells (human); assay: flow cytometry with quantification beads, CD8+ T cells in human whole blood, n=3 donors
[6] = molecular target: T1, human VISTA on cells (human); assay: flow cytometry with quantification beads, CD4+ T cells of human PBMC, n=5 donors
[7] = molecular target: T1, human VISTA on cells (human); assay: flow cytometry with quantification beads, CD4+ CD25+ CD127low Tregs of human PBMC, n=5 donors
[8] = molecular target: T1, human VISTA on cells (human); assay: flow cytometry with quantification beads, CD66b+ neutrophils in human whole blood, n=3 donors
[9] = molecular target: T1, human VISTA on cells (human); assay: flow cytometry with quantification beads, CD4+ T cells in human whole blood, n=3 donors
[10] = molecular target: T1, human VISTA on cells (human); assay: flow cytometry with quantification beads, CD8+ T cells of human PBMC, n=5 donors

B1: Anti-VISTA GG8 (antibody, V domains shown)
VH: EVQLQQSGPELVKPGTSMKISCKASGYSFTGYTMNWVRQSHGKNLEWIGLINPYNGGINYNQKFKARATLTVDKSSSTAYMELLSLTSEDSAVYYCARRTLLRPYFFDYWGQGTTLTVSS
VL: DIVLTQSPASLAVSLGQRATISCRASQSVSTSTFSYMHWYQQKPGQPPKLLIKYASNLESGVPARFSGSGSGTDFTLNIHPVEEEDTATYYCQHSWEIPYTFGGGTKLEIK
modifications: Alexa Fluor 647 dye conjugated to the antibody (p-1554); attachment sites not given
Binder B1 has an antibody binding capacity (ABC) [1] of 7490 molecules, an antibody binding capacity (ABC) (ABC (molecules per cell)) [2] of 112000 and an antibody binding capacity (ABC) (ABC (molecules per cell)) [3] of 224000. For the same binder, the antibody binding capacity (ABC) (ABC (molecules per cell)) [4] was 1280, the antibody binding capacity (ABC) [5] was 5010 molecules and the antibody binding capacity (ABC) [6] was 5940 molecules. The antibody binding capacity (ABC) [7] was 6640 molecules, the antibody binding capacity (ABC) (ABC (molecules per cell)) [8] was 68600 and the antibody binding capacity (ABC) [9] was 8720 molecules. The antibody binding capacity (ABC) [10] was 9960 molecules.
